Assay results taken from patent publication US20090022687A1, “Novel Pharmaceuticals That Use Anti-HLA Antibodies” (Chugai Seiyaku Kabushiki Kaisha, priority 2005, published 2009).

What was measured:
Experiment in all cases: Cell surface expression analysis of HLA class I by flow cytometry
Type in all cases: binding, human
[1] = tested on: HLA class I on Raji cells; settings: B-lymphoblastic cells, FITC-labeled mAb
Description: (§1) Reactivity of 2D7 mAb in tumor cell lines and myeloma cells derived from multiple myeloma patients were assessed by flow cytometry.
(§2) The tumor cell lines used were prepared as follows. The myeloma cell line RPMI 8226, B lymphoblastic cell lines (IM-9, Raji, H S-Sultan, and Daudi), the T lymphoblastic cell line CEM, the chronic myeloid leukemia cell line K562, the lung adenocarcinoma cell line A549, the colon adenocarcinoma cell line COLO 201, and the gastric adenocarcinoma cell line MKN-1 were obtained from the Health Science Resources Bank (Osaka, Japan). The myeloma cell line U266-B1, the B lymphoblastic cell line ARH-77, the T-lymphoblastic cell line Jurkat the breast cancer cell line MCF-7, the hepatocellular carcinoma HepG2, the clear cell renal cell carcinoma Caki-2, and the malignant melanoma MeWo were obtained from the American Type Culture Collection (Manassas, Va.). The EBV-transformed B-cell line YN was a gift from Dr. Yasuhiko Nishioka (The University of Tokushima). These cell lines were cultured in an RPM-1640 medium (Sigma-Aldrich, St. Louis, Mo.) supplemented with 10% fetal calf serum (Gibco BRL, Grand Island, N.Y.) and penicillin (100 U/mL) under a humidified atmosphere of 5% CO2 at 37° C.
(§3) Cell surface expression analysis of HLA class I by flow cytometry was performed as follows using FITC-labeled 2D7 mAb or FITC-labeled anti-HLA-ABC common region mAb (Chemicon, San Diego, Calif.). The cells (5×10^5 cells) were washed twice with PBS, and then incubated on ice for 40 minutes with FITC-labeled 2D7 mAb or FITC-labeled anti-HLA-ABC common region mAb. MM patient-derived BMMCs were incubated on ice for 15 minutes with 2% γ globulin diluted in PBS, and stained with FITC-labeled 2D7 mAb and PE-labeled anti-CD38 mAb (BD Bioscience, San Jose, Calif.) for myeloma cell gating. Next, the cells were washed twice with PBS, and analyzed using an EPICS XL flow cytometer (Beckman Coulter, Japan). In several experiments, the cells were stimulated for 48 hours with IFNα or IFNγ prior to HLA class I expression analysis. HLA class I expression levels were evaluated as GeoMFI using the CellQuest software (BID Biosciences).

[2] = tested on: HLA class I on Jurkat cells; settings: T-lymphoblastic cells, FITC-labeled mAb
Description: as §1, §2, §3

[3] = tested on: HLA class I on ARH77 cells; settings: ARH77, B-lymphoblastic cells; FITC-labeled mAb
Description: as §1, §2, §3

[4] = tested on: HLA class I on Caki-2 cells; settings: Caki-2, clear cell renal cell carcinoma; FITC-labeled mAb
Description: as §1, §2, §3

[5] = tested on: HLA class I on Daudi cells; settings: B-lymphoblastic cells, FITC-labeled mAb
Description: as §1, §2, §3

[6] = tested on: HLA class I on RPMI 8226 cells; settings: RPMI 8226, myeloma cells; FITC-labeled mAb
Description: as §1, §2, §3

[7] = tested on: HLA class I on HS-Sultan cells; settings: B-lymphoblastic cells, FITC-labeled mAb
Description: as §1, §2, §3

[8] = tested on: HLA class I on K562 cells; settings: K562, chronic myeloid leukemia cells; FITC-labeled mAb
Description: as §1, §2, §3

[9] = tested on: HLA class I on A549 cells; settings: A549, lung adenocarcinoma cells; FITC-labeled mAb
Description: as §1, §2, §3

[10] = tested on: HLA class I on COLO 201 cells; settings: COLO 201, colon adenocarcinoma cells; FITC-labeled mAb
Description: as §1, §2, §3

[11] = tested on: HLA class I on IM-9 cells; settings: IM-9, B-lymphoblastic cells; FITC-labeled mAb
Description: as §1, §2, §3

[12] = tested on: HLA class I on MeWo cells; settings: malignant melanoma, FITC-labeled mAb
Description: as §1, §2, §3

[13] = tested on: HLA class I on MKN-1 cells; settings: MKN-1, gastric adenocarcinoma cells; FITC-labeled mAb
Description: as §1, §2, §3

[14] = tested on: HLA class I on HepG2 cells; settings: HepG2, hepatocellular carcinoma; FITC-labeled mAb
Description: as §1, §2, §3

HLA class I on CEM cells = settings: T-lymphoblastic cells, FITC-labeled mAb
Description: as §1, §2, §3

HLA class I on YN cells = settings: EBV-transformed B-cells, FITC-labeled mAb
Description: as §1, §2, §3

[15] = tested on: HLA class I on MCF-7 cells; settings: MCF-7, breast cancer cells; FITC-labeled mAb
Description: as §1, §2, §3

[16] = tested on: HLA class I on U266 cells; settings: U266, myeloma cells; FITC-labeled mAb
Description: as §1, §2, §3

B1: 2D7: monoclonal antibody obtained by immunizing human myeloma cells; recognizes HLA class I (HLA-A) (antibody, V domains shown)
VH: QVQLQQSGPELVKPGASVKMSCKASGYTFTDYFIHWVKQRPGQGLEWIGWIFPGDDTTDYNEKFRGKTTLTADKSSSTAYILLSSLTSEDSAMYFCVRSDDFDYWGQGTTLTVSS
VL: QIVLTQSPAIMSASPGEKVTITCSASSSVSYMHWFQQKPGTFPKLWIYSTSNLASGVPTRFSGSGSGTSYSLTISRMEAEDAATYYCQQRTSYPPTFGSGTKLEIK
[1]
  Expression (geometric mean fluorescence intensity): 297
[2]
  Expression (geometric mean fluorescence intensity): 111
[3]
  Expression (geometric mean fluorescence intensity): 3727
[4]
  Expression (geometric mean fluorescence intensity): 13
[5]
  Expression (geometric mean fluorescence intensity): 2
[6]
  Expression (geometric mean fluorescence intensity): 509
[7]
  Expression (geometric mean fluorescence intensity): 285
[8]
  Expression (geometric mean fluorescence intensity): 11
[9]
  Expression (geometric mean fluorescence intensity): 37
[10]
  Expression (geometric mean fluorescence intensity): 105
[11]
  Expression (geometric mean fluorescence intensity): 662
[12]
  Expression (geometric mean fluorescence intensity): 21
[13]
  Expression (geometric mean fluorescence intensity): 49
[14]
  Expression (geometric mean fluorescence intensity): 33
HLA class I on CEM cells
  Expression (geometric mean fluorescence intensity): 72
HLA class I on YN cells
  Expression (geometric mean fluorescence intensity): 804
[15]
  Expression (geometric mean fluorescence intensity): 29
[16]
  Expression (geometric mean fluorescence intensity): 340
